The results in this text go back to patent US20140234312A1 (Genentech, published 2014).

Assay [1] addresses T1, hNrp2 (a1a2b1b2)-Fc fusion protein (human, UniProt O60462 23-595, limits assumed).
T1 construct: domain: a1a2b1b2; Expressed in CHO cells; The SPR text says only 'human Nrp2 (a1a2b1b2)', so it is not certain that the Fc fusion was the analyte there; also called hNrp2 ECD; human Nrp2 ECD; not shown: Fc part of the fusion
T1 sequence (looked up): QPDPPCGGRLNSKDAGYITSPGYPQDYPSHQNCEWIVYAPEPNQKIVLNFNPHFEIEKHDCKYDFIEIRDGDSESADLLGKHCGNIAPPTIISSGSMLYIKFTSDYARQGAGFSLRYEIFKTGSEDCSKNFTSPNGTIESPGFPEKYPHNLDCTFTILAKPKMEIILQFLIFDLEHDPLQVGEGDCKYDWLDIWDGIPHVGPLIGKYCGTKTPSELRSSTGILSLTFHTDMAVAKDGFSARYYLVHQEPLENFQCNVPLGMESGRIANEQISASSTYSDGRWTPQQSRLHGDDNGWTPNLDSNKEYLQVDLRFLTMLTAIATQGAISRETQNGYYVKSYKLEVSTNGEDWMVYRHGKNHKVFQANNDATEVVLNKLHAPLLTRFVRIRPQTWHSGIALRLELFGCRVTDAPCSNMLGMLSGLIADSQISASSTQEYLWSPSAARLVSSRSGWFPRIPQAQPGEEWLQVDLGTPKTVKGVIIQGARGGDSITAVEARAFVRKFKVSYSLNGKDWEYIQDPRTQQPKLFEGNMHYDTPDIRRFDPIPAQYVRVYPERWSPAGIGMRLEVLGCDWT
Description: competition ELISA: antibody titrated on plate-coated NRP2-Fc (5 ug/ml), competitor biotinylated VEGF165, streptavidin-HRP; blocking of VEGF165 binding. How it is done:
(§1) To evaluate blocking Nrp2 from binding VEGF, three-fold serial dilutions of anti-Nrp2^B IgGs were first incubated with 96-well Maxisorp plate coated NRP2-Fc (5 μg/ml) in PBST buffer for 2 hr, following by adding biotinylated VEGF₁₆₅ or VEGFC (full length) for 15 minutes. The amount of biotinylated VEGF binding to Nrp2 was detected by streptavidin-HRP conjugates.

The target in assay [2] is T1, hNrp2 (a1a2b1b2)-Fc fusion protein. The assay is described as follows: SPR (BIAcore-3000), human IgG1 captured on anti-human IgG CM5 chip, human Nrp2 (a1a2b1b2) injected 0.5-250 nM, 25 C, 1:1 Langmuir; human Nrp2. As to the method:
(§2) To determine binding affinities of anti-Nrp2^B IgG1 antibodies, surface plasmon resonance (SRP) measurement with a BIAcore™-3000 instrument was used. First of all, anti-Nrp2^B human IgGs were captured by CM5 biosensor chips coated rabbit anti-human IgG to achieve approximately 200 response units (RU). For kinetics measurements, two-fold serial dilutions of mouse or human Nrp2 (a1a2b1b2) (0.5 nM to 250 nM) were injected separately in PBT buffer (PBS with 0.05% (v/v) Tween 20) at 25° C. with a flow rate of 30 μl/min. Association rates (kₒₙ) and dissociation rates (koff) were calculated using a simple one-to-one Langmuir binding model (BIAcore Evaluation Software version 3.2). The equilibrium dissociation constant (KD) was calculated as the ratio koff/kₒₙ.

The target of assay [3] is T2, A1-A2 domains of hNrp2 (human, UniProt O60462 23-270, limits assumed).
T2 construct: domain: A1-A2; also called CUB (a1-a2) domains of human Nrp2
T2 sequence (looked up): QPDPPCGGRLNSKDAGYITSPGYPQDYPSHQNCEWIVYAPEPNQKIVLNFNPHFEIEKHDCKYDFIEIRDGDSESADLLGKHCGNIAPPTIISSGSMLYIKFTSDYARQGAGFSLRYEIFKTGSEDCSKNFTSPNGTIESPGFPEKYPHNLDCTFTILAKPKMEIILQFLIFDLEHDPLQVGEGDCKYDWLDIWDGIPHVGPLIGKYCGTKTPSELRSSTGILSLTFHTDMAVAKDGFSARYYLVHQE
Description: ELISA on antigen-coated plate, Anti-Nrp2^B IgG titrated, anti-human HRP detection, OD450. How it is done: (§3) For ELISA-based binding specificity tests, three-fold serial dilutions of Anti-Nrp2^B IgGs (0.002 nM to 500 nM) in PBST buffer (PBT buffer with 0.5% (w/v) BSA) were incubated with 1 μg/ml antigen-coated 96-well Maxisorp plates for at least 1 hr, and the plates were washed with PBT buffer. Bound antibodies were detected with anti-human antibody HRP conjugates diluted 1:2500 in PBST buffer, developed with TMB substrate for approximately 5 minutes, quenched with 1M H₃PO₄, and read spectrophotometrically at 450 nm.

Assay [4] deals with T3, hNrp1 ECD (human, UniProt O14786 22-856).
T3 construct: extracellular domain
T3 sequence (looked up): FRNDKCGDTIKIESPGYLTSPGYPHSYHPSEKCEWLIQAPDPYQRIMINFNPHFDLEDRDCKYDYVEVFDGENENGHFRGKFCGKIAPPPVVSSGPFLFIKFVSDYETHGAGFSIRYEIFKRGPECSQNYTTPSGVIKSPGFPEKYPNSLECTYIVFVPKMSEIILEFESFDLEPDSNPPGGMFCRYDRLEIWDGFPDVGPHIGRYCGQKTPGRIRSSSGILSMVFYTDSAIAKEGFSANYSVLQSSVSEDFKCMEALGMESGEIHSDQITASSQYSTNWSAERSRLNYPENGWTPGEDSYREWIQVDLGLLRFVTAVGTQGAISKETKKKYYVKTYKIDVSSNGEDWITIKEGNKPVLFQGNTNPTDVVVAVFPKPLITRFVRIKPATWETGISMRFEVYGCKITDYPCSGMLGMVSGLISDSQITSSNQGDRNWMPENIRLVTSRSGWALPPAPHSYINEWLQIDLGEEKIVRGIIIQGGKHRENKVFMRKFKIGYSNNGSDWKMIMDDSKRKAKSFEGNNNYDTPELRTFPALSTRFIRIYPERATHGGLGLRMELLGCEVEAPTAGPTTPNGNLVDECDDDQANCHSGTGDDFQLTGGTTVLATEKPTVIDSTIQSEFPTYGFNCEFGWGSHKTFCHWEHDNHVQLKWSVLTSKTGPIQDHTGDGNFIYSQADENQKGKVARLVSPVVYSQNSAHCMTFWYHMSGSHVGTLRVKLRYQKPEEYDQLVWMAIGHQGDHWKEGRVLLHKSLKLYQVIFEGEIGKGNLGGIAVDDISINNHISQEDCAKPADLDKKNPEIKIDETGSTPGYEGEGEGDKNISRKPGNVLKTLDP
Described as above. As to the method:
as §3

The target in assay [5] is T1, hNrp2 (a1a2b1b2)-Fc fusion protein. The assay is described as above. As to the method: as §3
The target in assay [6] is T4, hNrp2 (b1b2) (human, UniProt O60462 275-595, limits assumed).
T4 construct: domain: b1b2; Expressed in insect cells; also called B1-B2 domains of hNrp2; b1-b2 domains of human Nrp2
T4 sequence (looked up): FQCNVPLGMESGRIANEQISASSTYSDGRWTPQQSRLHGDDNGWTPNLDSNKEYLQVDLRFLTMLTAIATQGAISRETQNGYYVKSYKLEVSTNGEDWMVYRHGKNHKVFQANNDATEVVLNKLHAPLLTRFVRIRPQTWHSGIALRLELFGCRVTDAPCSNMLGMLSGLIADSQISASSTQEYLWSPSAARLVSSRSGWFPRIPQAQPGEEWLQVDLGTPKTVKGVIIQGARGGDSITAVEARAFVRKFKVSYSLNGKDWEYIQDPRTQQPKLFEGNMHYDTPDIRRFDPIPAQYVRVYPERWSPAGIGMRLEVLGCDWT
The description is as above. How it is done: as §3

Assay [7] deals with T1, hNrp2 (a1a2b1b2)-Fc fusion protein. Description: blocking ELISA: plate coated with human Nrp2 ECD (5 ug/ml), antibody pre-incubated, then biotinylated human VEGFC (1 nM), streptavidin-HRP; blocked ligand VEGFC. How it is done: FIG. 1. Characterization of Anti-Nrp2^B mAb. (A) Schematic representation of Sema and VEGF binding regions on Nrp2 relative to Anti-Nrp2^B epitope regions. […] (C) Blocking of VEGFC binding to Nrp2 by Anti-Nrp2^B. Increasing amounts of mAb was pre-incubated with plates coated with human Nrp2 ECD (5 μg/ml) for 1-2 hrs, followed by adding pre-titrated biotinylated human VEGFC (1 nM) for 15 min. The percentage of bound VEGFC was detected by streptavidin-HRP conjugates. (D) Blocking of VEGF₁₆₅ binding to Nrp2 by Anti-Nrp2^B. (E) Blocking of Sema3F binding to LECs. LEC were incubated with conditioned media containing Sema3F fused to alkaline phosphatase (AP) (REF), in the presence or absence of Anti-Nrp2^B. AP activity derived form bound Sema3F-AP was detected colorimetrically with same development times. […] Nrp2 ECD was used as a positive control for blocking binding (right panel). Scale bar
as §1

Assay [8] deals with T5, mNrp2 (a1a2b1b2)-His (mouse, UniProt O35375 23-595, limits assumed).
T5 construct: domain: a1a2b1b2; Expressed in CHO cells; also called mouse Nrp2 (a1a2b1b2); murine Nrp2; not shown: His tag
T5 sequence (looked up): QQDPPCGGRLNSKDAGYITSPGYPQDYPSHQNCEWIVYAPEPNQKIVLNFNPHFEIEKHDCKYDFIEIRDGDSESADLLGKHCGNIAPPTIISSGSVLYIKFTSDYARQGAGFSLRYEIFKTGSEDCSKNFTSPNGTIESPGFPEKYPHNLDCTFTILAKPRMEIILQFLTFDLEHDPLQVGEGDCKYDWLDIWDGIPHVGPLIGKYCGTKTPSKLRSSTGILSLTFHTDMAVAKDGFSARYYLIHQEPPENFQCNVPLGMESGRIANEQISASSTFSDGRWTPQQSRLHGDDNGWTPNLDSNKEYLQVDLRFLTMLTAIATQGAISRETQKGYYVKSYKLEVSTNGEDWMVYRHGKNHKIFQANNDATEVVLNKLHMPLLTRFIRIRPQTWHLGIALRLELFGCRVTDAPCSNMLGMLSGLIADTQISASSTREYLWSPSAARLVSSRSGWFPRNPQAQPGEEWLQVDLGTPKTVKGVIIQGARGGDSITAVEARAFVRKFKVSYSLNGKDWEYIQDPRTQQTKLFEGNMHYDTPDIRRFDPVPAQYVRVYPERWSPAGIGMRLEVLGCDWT
The assay is described as follows: SPR (BIAcore-3000), human IgG1 captured on anti-human IgG CM5 chip, mouse Nrp2 (a1a2b1b2) injected 0.5-250 nM, 25 C, 1:1 Langmuir; murine Nrp2. As to the method: as §2

B1: anti-Nrp2^B antibody YW68.4.2.36 (antibody, V domains shown)
VH: EVQLVESGGGLVQPGGSLRLSCAASGFTITSSGIHWVRQAPGKGLEWVARITPYDGSTDYADSVKGRFTISADTSKNTAYLQMNSLRAEDTAVYYCARYRGRLLFDYWGQGTLVTVSS
VL: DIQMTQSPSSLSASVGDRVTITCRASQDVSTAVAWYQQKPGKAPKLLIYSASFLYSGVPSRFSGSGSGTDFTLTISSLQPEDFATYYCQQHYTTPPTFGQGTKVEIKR
notes: Phage-derived human synthetic antibody; Human IgG1 was used in SPR and ELISA; also called Anti-Nrp2^B mAb; anti-Nrp2^B IgG1
In assay [1], B1 came in with an IC50 of 0.1 nM. The Kd in assay [2] worked out at 5.3 nM; in assay [8] it was 4.9 nM. In addition, the binding result in assay [3] and in assay [4] was “no binding (tested: 500 nM)” each time. Moreover, the “EC50 (read off the curve)” value in assay [5] is approximately 0.2 nM; in assay [6] it was approximately 0.3 nM. Also, the “IC50 (read off the curve)” value in assay [7] was approximately 0.1 nM.
